Here are results for three molecules from patent publication US20230250154A1 (CYTONICS, published 2023).

What all share (assay): cell-based or functional assay
One experiment has as its target MMP13 (human, UniProt P45452 104-471, limits assumed).
A further experiment addresses T1, ADAMTS4 (human, UniProt O75173 213-685, limits assumed).
T1 sequence (looked up): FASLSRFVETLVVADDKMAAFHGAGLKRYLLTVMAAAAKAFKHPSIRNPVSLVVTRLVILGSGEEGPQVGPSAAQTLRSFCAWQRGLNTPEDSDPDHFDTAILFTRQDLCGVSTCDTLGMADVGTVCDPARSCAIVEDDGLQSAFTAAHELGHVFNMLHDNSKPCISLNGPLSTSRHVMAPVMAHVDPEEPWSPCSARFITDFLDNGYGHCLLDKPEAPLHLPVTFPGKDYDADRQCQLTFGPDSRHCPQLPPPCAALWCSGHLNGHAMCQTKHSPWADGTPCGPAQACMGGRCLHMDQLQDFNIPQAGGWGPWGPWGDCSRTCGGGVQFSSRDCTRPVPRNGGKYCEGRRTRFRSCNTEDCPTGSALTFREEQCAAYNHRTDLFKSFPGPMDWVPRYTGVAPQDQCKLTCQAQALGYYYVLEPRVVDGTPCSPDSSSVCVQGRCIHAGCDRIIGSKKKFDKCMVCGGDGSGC

The next experiment has as its target T2, ADAMTS5 (human, UniProt Q9UNA0 262-622, limits assumed).
T2 sequence (looked up): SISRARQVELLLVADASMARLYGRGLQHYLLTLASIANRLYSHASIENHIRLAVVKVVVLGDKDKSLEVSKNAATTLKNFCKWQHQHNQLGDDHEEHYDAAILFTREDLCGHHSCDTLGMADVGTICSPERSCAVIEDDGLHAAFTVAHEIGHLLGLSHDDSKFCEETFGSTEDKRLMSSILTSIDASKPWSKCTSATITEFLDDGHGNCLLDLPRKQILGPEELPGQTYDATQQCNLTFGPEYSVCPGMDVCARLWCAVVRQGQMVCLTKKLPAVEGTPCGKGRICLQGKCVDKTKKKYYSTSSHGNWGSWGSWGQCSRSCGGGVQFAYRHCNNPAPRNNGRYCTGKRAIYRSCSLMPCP

B1: Variant A2M, bait region SEQ ID NO 93 (other)
chain: SVSGKPQYMVLVPSLLHTETTEKGCVLLSYLNETVTVSASLESVRGNRSLFTDLEAENDVLHCVAFAVPKSSSNEEVMFLTVQVKGPTQEFKKRTTVMVKNEDSLVFVQTDKSIYKPGQTVKFRVVSMDENFHPLNELIPLVYIQDPKGNRIAQWQSFQLEGGLKQFSFPLSSEPFQGSYKVVVQKKSGGRTEHPFTVEEFVLPKFEVQVTVPKIITILEEEMNVSVCGLYTYGKPVPGHVTVSICRKYSDASDCHGEDSQAFCEKFSGQLNSHGCFYQQVKTKVFQLKRKEYEMKLHTEAQIQEEGTVVELTGRQSSEITRTITKLSFVKVDSHFRQGIPFFGQVRLVDGKGVPIPNKVIFIRGNEANYYSNATTDEHGLVQFSINTTNVMGTSLTVRVNYKDRSPCYGYQWVSEEHEEAHHTAYLVFSPSKSFVHLEPMSHELPCGHTQTVQAHYILNGGTLLGLKKLSFYYLIMAKGGIVRTGTHGLLVKQEDMKGHFSISIPVKSDIAPVARLLIYAVLPTGDVIGDSAKYDVENCLANKVDLSFSPSQSLPASHAHLRVTAAPQSVCALRAVDQSVLLMKPDAELSASSVYNLLPEKDLTGFPGPLNDQDDEDCINRHNVYINGITYTPVSSTNEKDMYSFLEDMGLKAFTNSKIRKPKMCPQLEQYEMHGPEGLRVGVSQELGQRFYESDVMGRGHARLVHVEEPHTKLLRKYFPETWIWDLVVVNSAGVAEVGVTVPDTITEWKAGAFCLSEDAGLGISSTASLRAFQPFFVELTMPYSVIRGEAFTLKATVLNYLPKCIRVSVQLEASPAFLAVPVEKEQAPHCICANGRQTVSWAVTPKSLGNVNFTVSAEALESQELCGTEVPSVPEHGRKDTVIKPLLVEPEGLEKETTFNSLLCPSGGEVSEELSLKLPPNVVEESARASVSVLGDILGSAMQNTQNLLQMPYGCGEQNMVLFAPNIYVLDYLNETQQLTPEIKSKAIGYLNTGYQRQLNYKHYDGSYSTFGERYGRNQGNTWLTAFVLKTFAQARAYIFIDEAHITQALIWLSQRQKDNGCFRSSGSLLNNAIKGGVEDEVTLSAYITIALLEIPLTVTHPVVRNALFCLESAWKTAQEGDHGSHVYTKALLAYAFALAGNQDKRKEVLKSLNEEAVKKDNSVHWERPQKPKAPVGHFYEPQAPSAEVEMTSYVLLAYLTAQPAPTSEDLTSATNIVKWITKQQNAQGGFSSTQDTVVALHALSKYGAATFTRTGKAAQVTIQSSGTFSSKFQVDNNNRLLLQQVSLPELPGEYSMKVTGEGCVYLQTSLKYNILPEKEEFPFALGVQTLPQTCDEPKAHTSFQISLSVSYTGSRSASNMAIVDVKMVSGFIPLKPTVKMLERSNHVSRTEVSSNHVLIYLDKVSNQTLSLFFTVLQDVPVRDLKPAIVKVYDYYETDEFAIAEYNAPCSKDLGNADYKDDDDKGASHHHHHH
As for B1, the results for the “Protease Inhibition (% of WT)” value with MMP13, in the experiment with ADAMTS4 and in the experiment with ADAMTS5 were 119 % of WT, 27 % of WT and 66 % of WT, respectively.

B2: Variant A2M, bait region SEQ ID NO 94 (other)
chain: SVSGKPQYMVLVPSLLHTETTEKGCVLLSYLNETVTVSASLESVRGNRSLFTDLEAENDVLHCVAFAVPKSSSNEEVMFLTVQVKGPTQEFKKRTTVMVKNEDSLVFVQTDKSIYKPGQTVKFRVVSMDENFHPLNELIPLVYIQDPKGNRIAQWQSFQLEGGLKQFSFPLSSEPFQGSYKVVVQKKSGGRTEHPFTVEEFVLPKFEVQVTVPKIITILEEEMNVSVCGLYTYGKPVPGHVTVSICRKYSDASDCHGEDSQAFCEKFSGQLNSHGCFYQQVKTKVFQLKRKEYEMKLHTEAQIQEEGTVVELTGRQSSEITRTITKLSFVKVDSHFRQGIPFFGQVRLVDGKGVPIPNKVIFIRGNEANYYSNATTDEHGLVQFSINTTNVMGTSLTVRVNYKDRSPCYGYQWVSEEHEEAHHTAYLVFSPSKSFVHLEPMSHELPCGHTQTVQAHYILNGGTLLGLKKLSFYYLIMAKGGIVRTGTHGLLVKQEDMKGHFSISIPVKSDIAPVARLLIYAVLPTGDVIGDSAKYDVENCLANKVDLSFSPSQSLPASHAHLRVTAAPQSVCALRAVDQSVLLMKPDAELSASSVYNLLPEKDLTGFPGPLNDQDDEDCINRHNVYINGITYTPVSSTNEKDMYSFLEDMGLKAFTNSKIRKPKMCPQLEQYEMHGPEGLRVGTEGEARGSFYESDVMGRGHARLVHVEEPHTKLLRKYFPETWIWDLVVVNSAGVAEVGVTVPDTITEWKAGAFCLSEDAGLGISSTASLRAFQPFFVELTMPYSVIRGEAFTLKATVLNYLPKCIRVSVQLEASPAFLAVPVEKEQAPHCICANGRQTVSWAVTPKSLGNVNFTVSAEALESQELCGTEVPSVPEHGRKDTVIKPLLVEPEGLEKETTFNSLLCPSGGEVSEELSLKLPPNVVEESARASVSVLGDILGSAMQNTQNLLQMPYGCGEQNMVLFAPNIYVLDYLNETQQLTPEIKSKAIGYLNTGYQRQLNYKHYDGSYSTFGERYGRNQGNTWLTAFVLKTFAQARAYIFIDEAHITQALIWLSQRQKDNGCFRSSGSLLNNAIKGGVEDEVTLSAYITIALLEIPLTVTHPVVRNALFCLESAWKTAQEGDHGSHVYTKALLAYAFALAGNQDKRKEVLKSLNEEAVKKDNSVHWERPQKPKAPVGHFYEPQAPSAEVEMTSYVLLAYLTAQPAPTSEDLTSATNIVKWITKQQNAQGGFSSTQDTVVALHALSKYGAATFTRTGKAAQVTIQSSGTFSSKFQVDNNNRLLLQQVSLPELPGEYSMKVTGEGCVYLQTSLKYNILPEKEEFPFALGVQTLPQTCDEPKAHTSFQISLSVSYTGSRSASNMAIVDVKMVSGFIPLKPTVKMLERSNHVSRTEVSSNHVLIYLDKVSNQTLSLFFTVLQDVPVRDLKPAIVKVYDYYETDEFAIAEYNAPCSKDLGNADYKDDDDKGASHHHHHH
Turning to B2, the entries for the “Protease Inhibition (% of WT)” value in the experiment with MMP13, in the experiment with ADAMTS4 and with ADAMTS5 were 173 % of WT, 121 % of WT and 395 % of WT, respectively.

B3: Variant A2M, bait region SEQ ID NO 95 (other)
chain: SVSGKPQYMVLVPSLLHTETTEKGCVLLSYLNETVTVSASLESVRGNRSLFTDLEAENDVLHCVAFAVPKSSSNEEVMFLTVQVKGPTQEFKKRTTVMVKNEDSLVFVQTDKSIYKPGQTVKFRVVSMDENFHPLNELIPLVYIQDPKGNRIAQWQSFQLEGGLKQFSFPLSSEPFQGSYKVVVQKKSGGRTEHPFTVEEFVLPKFEVQVTVPKIITILEEEMNVSVCGLYTYGKPVPGHVTVSICRKYSDASDCHGEDSQAFCEKFSGQLNSHGCFYQQVKTKVFQLKRKEYEMKLHTEAQIQEEGTVVELTGRQSSEITRTITKLSFVKVDSHFRQGIPFFGQVRLVDGKGVPIPNKVIFIRGNEANYYSNATTDEHGLVQFSINTTNVMGTSLTVRVNYKDRSPCYGYQWVSEEHEEAHHTAYLVFSPSKSFVHLEPMSHELPCGHTQTVQAHYILNGGTLLGLKKLSFYYLIMAKGGIVRTGTHGLLVKQEDMKGHFSISIPVKSDIAPVARLLIYAVLPTGDVIGDSAKYDVENCLANKVDLSFSPSQSLPASHAHLRVTAAPQSVCALRAVDQSVLLMKPDAELSASSVYNLLPEKDLTGFPGPLNDQDDEDCINRHNVYINGITYTPVSSTNEKDMYSFLEDMGLKAFTNSKIRKPKMCPQLEQYEMHGPEGLRVGTSEDLVVQFYESDVMGRGHARLVHVEEPHTKLLRKYFPETWIWDLVVVNSAGVAEVGVTVPDTITEWKAGAFCLSEDAGLGISSTASLRAFQPFFVELTMPYSVIRGEAFTLKATVLNYLPKCIRVSVQLEASPAFLAVPVEKEQAPHCICANGRQTVSWAVTPKSLGNVNFTVSAEALESQELCGTEVPSVPEHGRKDTVIKPLLVEPEGLEKETTFNSLLCPSGGEVSEELSLKLPPNVVEESARASVSVLGDILGSAMQNTQNLLQMPYGCGEQNMVLFAPNIYVLDYLNETQQLTPEIKSKAIGYLNTGYQRQLNYKHYDGSYSTFGERYGRNQGNTWLTAFVLKTFAQARAYIFIDEAHITQALIWLSQRQKDNGCFRSSGSLLNNAIKGGVEDEVTLSAYITIALLEIPLTVTHPVVRNALFCLESAWKTAQEGDHGSHVYTKALLAYAFALAGNQDKRKEVLKSLNEEAVKKDNSVHWERPQKPKAPVGHFYEPQAPSAEVEMTSYVLLAYLTAQPAPTSEDLTSATNIVKWITKQQNAQGGFSSTQDTVVALHALSKYGAATFTRTGKAAQVTIQSSGTFSSKFQVDNNNRLLLQQVSLPELPGEYSMKVTGEGCVYLQTSLKYNILPEKEEFPFALGVQTLPQTCDEPKAHTSFQISLSVSYTGSRSASNMAIVDVKMVSGFIPLKPTVKMLERSNHVSRTEVSSNHVLIYLDKVSNQTLSLFFTVLQDVPVRDLKPAIVKVYDYYETDEFAIAEYNAPCSKDLGNADYKDDDDKGASHHHHHH
As to B3, the “Protease Inhibition (% of WT)” value with MMP13 is 79 % of WT; in the experiment with ADAMTS4 it was 153 % of WT; with ADAMTS5 it was 272 % of WT.
